Results on 2 molecules are retold here after patent CN117886935A (BEIJING KENUO XINCHENG TECH CO LTD, dated 2024).

Test [1] has as its target CSF-1R on CSF-1R/SRE-Luc/HEK293 reporter cells (UniProt P07333 20-972, limits assumed). Put plainly: cell-based or functional assay.
For test [2], the target named is T1, CSF-1R-mFc (human, UniProt P07333 20-512, limits assumed).
T1 construct: not shown: mouse Fc (mFc)
Put plainly: competition ELISA: CSF1-His coated, CSF-1R-mFc 0.15 μg/ml premixed with antibody.

The target of test [3] is T2, CSF-1R on rhCSF-1R-CHO cells (human, UniProt P07333 20-972).
T2 construct: whole, on cells; also called 细胞表面CSF-1R; CSF-1R-CHO细胞
The experiment in a line: flow cytometry on rhCSF-1R-CHO cells, FITC goat anti-human.

Test [4] has as its target T3, 人CSF-1R-his重组蛋白 (human CSF-1R-his recombinant protein) (human, UniProt P07333 20-512, limits assumed).
T3 construct: Analyte of the ForteBio assay, 60 nM; also called CD115; M-CSF-R; not shown: His tag
The experiment in a line: BLI (ForteBio). A general note: BLI is a label-free optical method that tracks binding on a fibre tip over time.

Test [5] addresses T1, CSF-1R-mFc. Put plainly: competition ELISA: human IL-34 coated, CSF-1R-mFc 0.15 μg/ml premixed with antibody. (In an ELISA, binding on a coated surface is turned into a signal by an enzyme label.)
Test [6] has as its target T3, 人CSF-1R-his重组蛋白 (human CSF-1R-his …). Put plainly: BLI (ForteBio), antibody on AHC probe, CSF-1R-his 60 nM, 1:1 fit.

For orientation: IC50 means the concentration at which inhibition is half-maximal. Read a low IC50 as higher potency. The term EC50 denotes the concentration at which the effect is half-maximal. Usually Kd stands for the concentration at which binding is half-saturated. As a reminder, the koff is the first-order rate constant of dissociation. As a reminder, the kon is the second-order rate constant of association.

CSF-1R on CSF-1R/SRE-Luc/HEK293 reporter cells, sequence (P07333 20-972 limits assumed): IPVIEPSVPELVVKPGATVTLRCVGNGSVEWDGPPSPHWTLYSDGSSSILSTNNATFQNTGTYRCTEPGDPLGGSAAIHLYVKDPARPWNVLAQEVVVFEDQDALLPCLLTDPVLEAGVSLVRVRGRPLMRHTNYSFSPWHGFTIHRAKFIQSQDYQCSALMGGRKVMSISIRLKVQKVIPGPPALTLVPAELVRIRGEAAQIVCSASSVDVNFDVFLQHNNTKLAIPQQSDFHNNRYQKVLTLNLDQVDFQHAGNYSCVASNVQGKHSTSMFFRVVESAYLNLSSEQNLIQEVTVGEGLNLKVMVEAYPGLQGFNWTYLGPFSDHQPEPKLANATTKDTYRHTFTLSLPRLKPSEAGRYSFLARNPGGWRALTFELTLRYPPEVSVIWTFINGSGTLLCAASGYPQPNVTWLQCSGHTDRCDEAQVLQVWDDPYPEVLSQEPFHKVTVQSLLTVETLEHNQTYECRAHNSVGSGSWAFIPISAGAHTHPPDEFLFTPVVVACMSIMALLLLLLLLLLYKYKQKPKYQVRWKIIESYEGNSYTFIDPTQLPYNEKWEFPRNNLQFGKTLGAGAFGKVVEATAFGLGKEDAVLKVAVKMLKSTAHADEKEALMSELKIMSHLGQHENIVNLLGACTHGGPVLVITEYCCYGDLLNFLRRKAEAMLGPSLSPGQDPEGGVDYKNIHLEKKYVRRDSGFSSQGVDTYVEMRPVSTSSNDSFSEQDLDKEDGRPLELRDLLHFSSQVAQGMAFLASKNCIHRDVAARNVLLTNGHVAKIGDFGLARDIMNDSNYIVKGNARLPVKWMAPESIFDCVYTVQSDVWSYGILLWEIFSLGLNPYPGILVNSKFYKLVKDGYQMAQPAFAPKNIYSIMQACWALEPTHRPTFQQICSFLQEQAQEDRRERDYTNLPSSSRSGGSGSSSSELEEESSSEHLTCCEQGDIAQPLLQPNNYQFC
T3 sequence (P07333 20-512 limits assumed): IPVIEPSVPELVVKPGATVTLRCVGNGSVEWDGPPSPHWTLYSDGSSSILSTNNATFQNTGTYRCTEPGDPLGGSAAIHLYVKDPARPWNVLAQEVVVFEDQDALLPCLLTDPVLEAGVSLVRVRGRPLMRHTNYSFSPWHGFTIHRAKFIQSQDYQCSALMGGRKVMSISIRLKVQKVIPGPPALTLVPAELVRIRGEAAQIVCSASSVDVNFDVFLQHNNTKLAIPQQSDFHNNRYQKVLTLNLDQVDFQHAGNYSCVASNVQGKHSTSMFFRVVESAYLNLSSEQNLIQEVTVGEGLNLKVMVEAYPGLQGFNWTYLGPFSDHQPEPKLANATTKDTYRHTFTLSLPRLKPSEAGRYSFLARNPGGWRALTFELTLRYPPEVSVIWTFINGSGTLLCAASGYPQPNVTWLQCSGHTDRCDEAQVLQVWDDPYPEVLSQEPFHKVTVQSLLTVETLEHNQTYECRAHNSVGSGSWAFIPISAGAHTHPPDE
T1 sequence (P07333 20-512 limits assumed): as above
T2 sequence (P07333 20-972): as the sequence (P07333 20-972 limits assumed) above

B1: hz73 (antibody, V domains shown)
VH: EVQLVQSGAEVKKPGASVKVSCKASGYTFTDYNMDWVRQAPGQGLEWMGDIIPNYDSATYNQKFKGRVTMTRDTSTSTVYMELSSLRSEDTAVYYCARKGGGYVNWYFDVWGQGTTVTVSS
VL: DIQMTQSPSSLSASVGDRVTITCHASQNINVWLSWYQQKPGKAPKLLIYKASNLHTGVPSRFSGSGSGTDFTFTISSLQPEDIATYYCQQGESYPYTFGGGTKVEIK
notes: also called 人源化抗体hz73
As for B1, in test [1], the “IC50, inhibition of CSF-1-stimulated (7.2 ng/ml) SRE-Luc reporter in CSF-1R/SRE-Luc/HEK293 cells” value amounted to 0.31 µg/mL and the “IC50, inhibition of IL-34-stimulated (85.06 ng/ml) SRE-Luc reporter in CSF-1R/SRE-Luc/HEK293 cells” value came to 0.8 µg/mL. The IC50 in the test with CSF-1R-mFc [2] is 0.339 nM. The molecule further yielded an EC50 in test [3] of 0.196 µg/mL. In test [4], the Kd was 0.0605 nM, the koff was 1.3e-05 s⁻¹ and the kon is 215000 M⁻¹ s⁻¹. The IC50 with CSF-1R-mFc [5] turned out to be 0.393 nM.

B2: Cabiralizumab (FPA-008) (antibody, V domains shown)
VH: QVQLVQSGAEVKKPGSSVKVSCKASGYTFTDNYMIWVRQAPGQGLEWMGDINPYNGGTTFNQKFKGRVTITADKSTSTAYMELSSLRSEDTAVYYCARESPYFSNLYVMDYWGQGTLVTVSS
VL: EIVLTQSPATLSLSPGERATLSCKASQSVDYDGDNYMNWYQQKPGQAPRLLIYAASNLESGIPARFSGSGSGTDFTLTISSLEPEDFAVYYCHLSNEDLSTFGGGTKVEIK
notes: Control antibody, synthesised after CN107011438 A; also called Cabirlizumab; 对照抗体
For the molecule B2, in test [1], the “IC50, inhibition of CSF-1-stimulated (7.2 ng/ml) SRE-Luc reporter in CSF-1R/SRE-Luc/HEK293 cells” value turned out to be 0.21 µg/mL and the “IC50, inhibition of IL-34-stimulated (85.06 ng/ml) SRE-Luc reporter in CSF-1R/SRE-Luc/HEK293 cells” value amounted to 0.34 µg/mL. In the test with CSF-1R-mFc [2], this molecule had an IC50 of 0.3 nM. The EC50 in test [3] came to 0.109 µg/mL. In test [6], the Kd was 2.38 nM, the koff was found to be 0.000228 s⁻¹ and the kon turned out to be 95800 M⁻¹ s⁻¹. In the test with CSF-1R-mFc [5], the IC50 is around 0.752 nM.
